Measurements reported in article PMC3081289 (PLoS ONE, 2011).

Target: T1, human Epidermal Growth Factor Receptor 2 (HER2), extracellular domain (Homo sapiens, UniProt P04626)
T1 construct: HER2 (human Epidermal Growth Factor Receptor 2), extracellular domain (ECD); also called HER2-ECD; HER2 ECD; source: expressed and purified as described [54]
Assay: SPR; BIAcore 3000; VEGF_(8–109) or HER2 ECD immobilised on CM5 chips; serial dilutions of Fab in PBS with 0.05% Tween20 injected at 30 µl/min; 30°C; 1:1 Langmuir fit; KD from the ratio of kon and koff
Conditions: both partners purified

B1: bH1 Fab (HER2/VEGF dual specific variant of Herceptin) (Fab, V domains shown)
VH: not shown
VL: DIQMTQSPSSLSASVGDRVTITCRASQDIPRSISGYVAWYQQKPGKAPKLLIYWGSYLYSGVPSRFSGSGSGTDFTLTISSLQPEDFATYYCQQHYTTPPTFGQGTKVEIK
notes: Isolated from a phage library that randomised the light chain CDRs of Herceptin [22]
**Q.** Which Kd does the source give for B1 here?
**A.** Its Kd is 20 nM.
